Drawing on patent publication US20240190989A1 (BEIGENE SWITZERLAND, published 2024), this text covers Kd for twelve molecules.

Experiment [1] deals with T1, human CD137 ECD-mIgG2a (human).
T1 construct: ECD 24-183 of huCD137 fused to mouse IgG2a Fc; also called huCD137-mIgG2a; huCD137
As to the kind of experiment: SPR, Fc-fusion VH captured. For orientation: SPR reads the build-up and loss of mass on a sensor chip optically.
Method: Characterization of anti-huCD137 VH domain antibodies were made by SPR assays using BIAcore™ T-200 (GE Life Sciences). Briefly, anti-human IgG (Fc) antibody was immobilized on an activated CM5 biosensor chip (Cat.: BR100839, GE Life Sciences). Anti-huCD137 domain antibodies were flowed over the chip surface and captured by anti-human IgG (Fc) antibody. […] The equilibrium dissociation constant (KD) was calculated as the ratio koff/kₒₙ.
Affinity comparison on CD137 affinity matured variants was made by SPR assays using BIAcore™ T-200 (GE Life Sciences) and flow cytometry as described.

The target of experiment [2] is T1, human CD137 ECD-mIgG2a. Nature of the experiment: SPR, A-CEAxCD137 format.

T1 sequence (chain, as listed by the source limits assumed): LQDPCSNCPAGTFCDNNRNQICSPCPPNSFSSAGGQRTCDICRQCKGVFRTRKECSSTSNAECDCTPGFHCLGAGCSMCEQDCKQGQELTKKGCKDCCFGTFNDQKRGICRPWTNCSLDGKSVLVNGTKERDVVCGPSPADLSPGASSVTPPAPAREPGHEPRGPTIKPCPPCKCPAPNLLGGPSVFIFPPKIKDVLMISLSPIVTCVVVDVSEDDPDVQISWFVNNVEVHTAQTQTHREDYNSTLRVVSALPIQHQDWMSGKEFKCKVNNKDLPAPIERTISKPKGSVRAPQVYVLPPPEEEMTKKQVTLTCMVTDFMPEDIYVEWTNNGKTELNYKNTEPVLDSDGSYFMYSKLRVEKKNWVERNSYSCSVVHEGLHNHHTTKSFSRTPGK

B1: BGA-3285-mutFc (Fc fusion)
chain: EVQLLESGGGLVQPGGSLRLSCAASGFTISAEDVGWVRQAPGKGLEWVSAILDFGGSTYYAESVKGRFTISRDNAKNTLYLQMSSLRAEDTAVYYCARVVYHAGGGVTFDTRGQGTQVTVSSGGGGSDKTHTCPPCPAPPAAGPSVFLFPPKPKDTLMISRTPEVTCVVVDVSHEDPEVKFNWYVDGVEVHNAKTKPREEQYNSTYRVVSVLTVLHQDWLNGKEYKCKVSNKALAAPIEKTISKAKGQPREPQVYTLPPSREEMTKNQVSLTCLVKGFYPSDIAVEWESNGQPENNYKTTPPVLDSDGSFFLYSKLTVDKSRWQQGNVFSCSVMHEALHNHYTQKSLSLSPGK
As to B1, the Kd (in general, a measure of binding affinity in units of concentration) with human CD137 ECD-mIgG2a [1] came to 186 nM.

B2: BGA-9442-mutFc (Fc fusion)
chain: EVQLLESGGGLVQPGGSLRLSCAASGFTISAEDVGWVRQAPGKGLEWVSAILDSGGSTYYAESVKGRFTISRDNAKNTLYLQMSSLRAEDTAVYYCARYVYHAGGGVTFDLRGQGTQVTVSSGGGGSDKTHTCPPCPAPPAAGPSVFLFPPKPKDTLMISRTPEVTCVVVDVSHEDPEVKFNWYVDGVEVHNAKTKPREEQYNSTYRVVSVLTVLHQDWLNGKEYKCKVSNKALAAPIEKTISKAKGQPREPQVYTLPPSREEMTKNQVSLTCLVKGFYPSDIAVEWESNGQPENNYKTTPPVLDSDGSFFLYSKLTVDKSRWQQGNVFSCSVMHEALHNHYTQKSLSLSPGK
As to B2, in the experiment with human CD137 ECD-mIgG2a [1], the Kd was determined as 151 nM.

B3: BGA-7746-mutFc (Fc fusion)
chain: EVQLLESGGGLVQPGGSLRLSCAASGFTVSAEDVGWVRQAPGKGLEWVSAILDFGGSTYYAESVKGRFTISRDNAKNTLYLQMSSLRAEDTAVYYCARVVYHAGGGVTFDTRGQGTQVTVSSGGGGSDKTHTCPPCPAPPAAGPSVFLFPPKPKDTLMISRTPEVTCVVVDVSHEDPEVKFNWYVDGVEVHNAKTKPREEQYNSTYRVVSVLTVLHQDWLNGKEYKCKVSNKALAAPIEKTISKAKGQPREPQVYTLPPSREEMTKNQVSLTCLVKGFYPSDIAVEWESNGQPENNYKTTPPVLDSDGSFFLYSKLTVDKSRWQQGNVFSCSVMHEALHNHYTQKSLSLSPGK
In the experiment with human CD137 ECD-mIgG2a [1], B3 registered a dissociation constant Kd of 193 nM.

B4: BGA-7916-mutFc (Fc fusion)
chain: EVQLLESGGGLVQPGGSLRLSCAASGFTVSAEDVGWVRQAPGKGLEWVSAILDSGGSTYYAESVKGRFTISRDNAKNTLYLQMSSLRAEDTAVYYCARVVYHAGGGVTYDTRGQGTQVTVSSGGGGSDKTHTCPPCPAPPAAGPSVFLFPPKPKDTLMISRTPEVTCVVVDVSHEDPEVKFNWYVDGVEVHNAKTKPREEQYNSTYRVVSVLTVLHQDWLNGKEYKCKVSNKALAAPIEKTISKAKGQPREPQVYTLPPSREEMTKNQVSLTCLVKGFYPSDIAVEWESNGQPENNYKTTPPVLDSDGSFFLYSKLTVDKSRWQQGNVFSCSVMHEALHNHYTQKSLSLSPGK
Turning to B4, in the experiment with human CD137 ECD-mIgG2a [1], the Kd was determined as 87.7 nM.

B5: BGA-4988-mutFc (Fc fusion)
chain: EVQLLESGGGLVQPGGSLRLSCAASGFTVSAEDVGWVRQAPGKGLEWVSAILDRGGSTYYAESVKGRFTISRDNAKNTLYLQMSSLRAEDTAVYYCARVVYHAGGGVTYDTRGQGTQVTVSSGGGGSDKTHTCPPCPAPPAAGPSVFLFPPKPKDTLMISRTPEVTCVVVDVSHEDPEVKFNWYVDGVEVHNAKTKPREEQYNSTYRVVSVLTVLHQDWLNGKEYKCKVSNKALAAPIEKTISKAKGQPREPQVYTLPPSREEMTKNQVSLTCLVKGFYPSDIAVEWESNGQPENNYKTTPPVLDSDGSFFLYSKLTVDKSRWQQGNVFSCSVMHEALHNHYTQKSLSLSPGK
B5: in the experiment with human CD137 ECD-mIgG2a [1], the equilibrium dissociation constant (Kd) was found to be 1030 nM.

B6: BGA-3849-mutFc (Fc fusion)
chain: EVQLLESGGGLVQPGGSLRLSCAASGFTLSHEDVGWVRQAPGKGLEWVSAILDSGGSTYYAESVKGRFTISRDNAKNTLYLQMSSLRAEDTAVYYCARYVYHAGGGVTFDTRGQGTQVTVSSGGGGSDKTHTCPPCPAPPAAGPSVFLFPPKPKDTLMISRTPEVTCVVVDVSHEDPEVKFNWYVDGVEVHNAKTKPREEQYNSTYRVVSVLTVLHQDWLNGKEYKCKVSNKALAAPIEKTISKAKGQPREPQVYTLPPSREEMTKNQVSLTCLVKGFYPSDIAVEWESNGQPENNYKTTPPVLDSDGSFFLYSKLTVDKSRWQQGNVFSCSVMHEALHNHYTQKSLSLSPGK
For B6, binding in the experiment with human CD137 ECD-mIgG2a [1] was characterised by a dissociation constant (Kd) of 76.3 nM.

B7: BGA-8425-mutFc (Fc fusion)
chain: EVQLLESGGGLVQPGGSLRLSCAASGFTLSAEDVGWVRQAPGKGLEWVSAILDSGGSTYYAESVKGRFTISRDNAKNTLYLQMSSLRAEDTAVYYCARVVYHAGGGVTYDYRGQGTQVTVSSGGGGSDKTHTCPPCPAPPAAGPSVFLFPPKPKDTLMISRTPEVTCVVVDVSHEDPEVKFNWYVDGVEVHNAKTKPREEQYNSTYRVVSVLTVLHQDWLNGKEYKCKVSNKALAAPIEKTISKAKGQPREPQVYTLPPSREEMTKNQVSLTCLVKGFYPSDIAVEWESNGQPENNYKTTPPVLDSDGSFFLYSKLTVDKSRWQQGNVFSCSVMHEALHNHYTQKSLSLSPGK
In the experiment with human CD137 ECD-mIgG2a [1], B7 registered a Kd of 93.4 nM.

B8: BGA-5385-mutFc (Fc fusion)
chain: EVQLLESGGGLVQPGGSLRLSCAASGFTLSAEDVGWVRQAPGKGLEWVSAILDHGGSTYYAESVKGRFTISRDNAKNTLYLQMSSLRAEDTAVYYCARVIYHAGGGVTYDYRGQGTQVTVSSGGGGSDKTHTCPPCPAPPAAGPSVFLFPPKPKDTLMISRTPEVTCVVVDVSHEDPEVKFNWYVDGVEVHNAKTKPREEQYNSTYRVVSVLTVLHQDWLNGKEYKCKVSNKALAAPIEKTISKAKGQPREPQVYTLPPSREEMTKNQVSLTCLVKGFYPSDIAVEWESNGQPENNYKTTPPVLDSDGSFFLYSKLTVDKSRWQQGNVFSCSVMHEALHNHYTQKSLSLSPGK
In the experiment with human CD137 ECD-mIgG2a [1], B8 gave a Kd of 100 nM.

B9: BGA-9468-mutFc (Fc fusion)
chain: EVQLLESGGGLVQPGGSLRLSCAASGFTVSAEDVGWVRQAPGKGLEWVSAILDSGGSTYYAESVKGRFTISRDNAKNTLYLQMSSLRAEDTAVYYCARVVYHSGGGVTFDLRGQGTQVTVSSGGGGSDKTHTCPPCPAPPAAGPSVFLFPPKPKDTLMISRTPEVTCVVVDVSHEDPEVKFNWYVDGVEVHNAKTKPREEQYNSTYRVVSVLTVLHQDWLNGKEYKCKVSNKALAAPIEKTISKAKGQPREPQVYTLPPSREEMTKNQVSLTCLVKGFYPSDIAVEWESNGQPENNYKTTPPVLDSDGSFFLYSKLTVDKSRWQQGNVFSCSVMHEALHNHYTQKSLSLSPGK
In the experiment with human CD137 ECD-mIgG2a [1], B9 gave a Kd of 190 nM.

B10: BGA-3953-mutFc (Fc fusion)
chain: EVQLLESGGGLVQPGGSLRLSCAASGFTVSAEDVGWVRQAPGKGLEWVSAILDSGGSTYYAESVKGRFTISRDNAKNTLYLQMSSLRAEDTAVYYCARIVYHAGGGVTFDTRGQGTQVTVSSGGGGSDKTHTCPPCPAPPAAGPSVFLFPPKPKDTLMISRTPEVTCVVVDVSHEDPEVKFNWYVDGVEVHNAKTKPREEQYNSTYRVVSVLTVLHQDWLNGKEYKCKVSNKALAAPIEKTISKAKGQPREPQVYTLPPSREEMTKNQVSLTCLVKGFYPSDIAVEWESNGQPENNYKTTPPVLDSDGSFFLYSKLTVDKSRWQQGNVFSCSVMHEALHNHYTQKSLSLSPGK
In turn, B10 yielded a Kd with human CD137 ECD-mIgG2a [1] of 48.3 nM.

B11: Format A BGA-3285 (bispecific antibody, human IgG1, kappa)
heavy: QVQLVQSGAEVKKPGASVKVSCKASGYIFTSYYLHWVRQAPGQGLEWIGYINPQTGKTSYAQKFQGRVTMTRDTSTSTVYMELSSLRSEDTAVYYCAREYGNYNYPLDYWGQGTLVTVSSASTKGPSVFPLAPSSKSTSGGTAALGCLVKDYFPEPVTVSWNSGALTSGVHTFPAVLQSSGLYSLSSVVTVPSSSLGTQTYICNVNHKPSNTKVDKKVEPKSCDKTHTCPPCPAPPAAGPSVFLFPPKPKDTLMISRTPEVTCVVVDVSHEDPEVKFNWYVDGVEVHNAKTKPREEQYNSTYRVVSVLTVLHQDWLNGKEYKCKVSNKALAAPIEKTISKAKGQPREPQVYTLPPSREEMTKNQVSLTCLVKGFYPSDIAVEWESNGQPENNYKTTPPVLDSDGSFFLYSKLTVDKSRWQQGNVFSCSVMHEALHNHYTQKSLSLSPGKGGGGSEVQLLESGGGLVQPGGSLRLSCAASGFTISAEDVGWVRQAPGKGLEWVSAILDFGGSTYYAESVKGRFTISRDNAKNTLYLQMSSLRAEDTAVYYCARVVYHAGGGVTFDTRGQGTQVTVSS
light: DIQMTQSPSSLSASVGDRVTITCRASENQYGYLAWYQQKPGKVPKLLIYNYKNLVEGVPSRFSGSGSGTDFTLTISSLQPEDVATYYCQHHLGTPYTFGQGTKVEIKRTVAAPSVFIFPPSDEQLKSGTASVVCLLNNFYPREAKVQWKVDNALQSGNSQESVTEQDSKDSTYSLSSTLTLSKADYEKHKVYACEVTHQGLSSPVTKSFNRGEC
Consider B11, for which, in the experiment with human CD137 ECD-mIgG2a [2], the Kd was 798 nM. This lies in the sub-micromolar range.

B12: Format A BGA-3953 (bispecific antibody, human IgG1, kappa)
heavy: QVQLVQSGAEVKKPGASVKVSCKASGYIFTSYYLHWVRQAPGQGLEWIGYINPQTGKTSYAQKFQGRVTMTRDTSTSTVYMELSSLRSEDTAVYYCAREYGNYNYPLDYWGQGTLVTVSSASTKGPSVFPLAPSSKSTSGGTAALGCLVKDYFPEPVTVSWNSGALTSGVHTFPAVLQSSGLYSLSSVVTVPSSSLGTQTYICNVNHKPSNTKVDKKVEPKSCDKTHTCPPCPAPPAAGPSVFLFPPKPKDTLMISRTPEVTCVVVDVSHEDPEVKFNWYVDGVEVHNAKTKPREEQYNSTYRVVSVLTVLHQDWLNGKEYKCKVSNKALAAPIEKTISKAKGQPREPQVYTLPPSREEMTKNQVSLTCLVKGFYPSDIAVEWESNGQPENNYKTTPPVLDSDGSFFLYSKLTVDKSRWQQGNVFSCSVMHEALHNHYTQKSLSLSPGKGGGGSEVQLLESGGGLVQPGGSLRLSCAASGFTVSAEDVGWVRQAPGKGLEWVSAILDSGGSTYYAESVKGRFTISRDNAKNTLYLQMSSLRAEDTAVYYCARIVYHAGGGVTFDTRGQGTQVTVSS
light: DIQMTQSPSSLSASVGDRVTITCRASENQYGYLAWYQQKPGKVPKLLIYNYKNLVEGVPSRFSGSGSGTDFTLTISSLQPEDVATYYCQHHLGTPYTFGQGTKVEIKRTVAAPSVFIFPPSDEQLKSGTASVVCLLNNFYPREAKVQWKVDNALQSGNSQESVTEQDSKDSTYSLSSTLTLSKADYEKHKVYACEVTHQGLSSPVTKSFNRGEC
Molecule B12 came in with a Kd with human CD137 ECD-mIgG2a [2] of 115 nM.
